Experimental data: patent US20200324001A1 (NATIONAL UNIVERSITY CORPORATION OKAYAMA UNIVERSITY, published 2020)

Assays:
[1] = biological target: T1, human recombinant mesothelin (r-MSLN) (human, UniProt Q13421 296-598, limits assumed); assay: BLI (BLItz, AR2G biosensor), unlabeled scFv against r-MSLN
T1 construct: also called recombinant MSLN; antigen r-MSLN

[2] = biological target: T1, human recombinant mesothelin (r-MSLN); assay: BLI (BLItz, AR2G biosensor), scFv after 89Zr labeling against r-MSLN
Experimental: DFO modification to each His-tag scFv was performed by incubation in bicarbonate buffer at a pH of 9.0 at 37° C. for 1 hour so that the ratio of dissolved chelating agent deferoxamine (p-SCN-Bn-DFO) to His-tag scFv was 3:1. ⁸⁹Zr was produced with a cyclotron (HM-12 cyclotron, Sumitomo Heavy Industries Ltd., Tokyo, Japan), and ⁸⁹Zr-oxalate was obtained. ⁸⁹Zr-oxalate, Na₂CO₃ (2M), and HEPES (0.5 M) were mixed so that the ratio of ⁸⁹Zr-oxalate to Na₂CO₃ (2M) to HEPES (0.5 M) was 2:1:10 and adjusted to a pH of 7.0, and the mixture was mixed with each DFO-modified His-tag scFv clone in which the solvent was replaced with gentisic acid physiological saline (5 mg/mL), followed by incubation at 37° C. for 30 minutes, thereby obtaining ⁸⁹Zr-DFO-scFvs. Unbound ⁸⁹Zr was removed by ultrafiltration using an Amicon Ultra 10K centrifugal filter. The radiochemical purity was determined by thin-layer chromatography-autoradiography (TLC-ARG) and HPLC (LC-20, Shimadzu Co., Kyoto, Japan). […] The in vitro stability of the radiolabeled scFvs after incubation in 50% human plasma/PBS at 37° C. for 6 hours was also analyzed. […] Immediately after mixing and after 6-hour incubation, a portion of the mixture of the radiolabeled scFv and the plasma was measured at 230 nm by HPLC, and the radioactivity was measured with a GABI star (Raytest, Straubenhardt, Germany). […]

[3] = biological target: T1, human recombinant mesothelin (r-MSLN); assay: BLI (BLItz, AR2G biosensor), scFv after DFO modification against r-MSLN
[4] = biological target: T2, mesothelin (MSLN) expressed on human cancer cell lines (human, UniProt Q13421 296-598); assay: flow cytometry on Hela cells; grade of MFI ratio to control (+ = 4.9-1.5)
T2 construct: whole, on cells; also called MSLN expressed in cancer cells
Experimental: (§1) A total of 28 cell lines were used for FCM analysis. The “MSLN exp ref” column indicates positive MSLN expression shown in previous studies. The “MSLN exp FCM” column indicates the ratio of the mean fluorescence intensity […] of the control; a ratio of 5 or more was indicated as “++,” a ratio of 4.9-1.5 was indicated as “+,” and a ratio of 1.4 or less is indicated as “−.”
(§2) The human cancer cell lines (Table 1) were treated with Cell Dissociation Buffer, enzyme-free, PBS (Gibco/Life Technologies, CA, USA) and harvested as single-cell suspensions. 1×10⁶ cells were washed once with cold PBS containing 2% FBS and 1 mM EDTA, and a full-length anti-human MSLN antibody, each anti-human MSLN cp3-scFv clone, or each His-tag scFv clone was used as a primary antibody. For the full-length anti-human MSLN antibody, an anti-KLH antibody (IgG2b isotype control) was used as a negative control, and an Alexa Fluor 488-labeled goat anti-mouse IgG antibody was used as a secondary antibody. […] The mean value of the fluorescence intensity (excluding the dead cell population) was obtained using BD FACSDiva software and calculated using Microsoft Excel.

[5] = biological target: T2, mesothelin (MSLN) expressed on human …; assay: flow cytometry on 22Rv1 cells; grade of MFI ratio to control (+ = 4.9-1.5)
Experimental: as §1, §2

[6] = biological target: T2, mesothelin (MSLN) expressed on human …; assay: flow cytometry on MKN45 cells; grade of MFI ratio to control (+ = 4.9-1.5)
Experimental: as §1, §2

[7] = biological target: T2, mesothelin (MSLN) expressed on human …; assay: flow cytometry on MKN74 cells; grade of MFI ratio to control (+ = 4.9-1.5)
Experimental: as §1, §2

[8] = biological target: T2, mesothelin (MSLN) expressed on human …; assay: flow cytometry on BxPC-3 cells; grade of MFI ratio to control (+ = 4.9-1.5)
Experimental: as §1, §2

[9] = biological target: T2, mesothelin (MSLN) expressed on human …; assay: flow cytometry on CFPAC-1 cells; grade of MFI ratio to control (+ = 4.9-1.5)
Experimental: as §1, §2

[10] = biological target: T2, mesothelin (MSLN) expressed on human …; assay: flow cytometry on HEC-1-A cells; grade of MFI ratio to control (+ = 4.9-1.5)
Experimental: as §1, §2

[11] = biological target: T2, mesothelin (MSLN) expressed on human …; assay: flow cytometry on SK-OV-3 cells; grade of MFI ratio to control (+ = 4.9-1.5)
Experimental: as §1, §2

[12] = biological target: T2, mesothelin (MSLN) expressed on human …; assay: flow cytometry on SiHa cells; grade of MFI ratio to control (++ = 5 or more)
Experimental: as §1, §2

[13] = biological target: T2, mesothelin (MSLN) expressed on human …; assay: flow cytometry on NCI-H596 cells; grade of MFI ratio to control (+ = 4.9-1.5)
Experimental: as §1, §2

[14] = biological target: T2, mesothelin (MSLN) expressed on human …; assay: flow cytometry on NCI-N87 cells; grade of MFI ratio to control (++ = 5 or more)
Experimental: as §1, §2

[15] = biological target: T2, mesothelin (MSLN) expressed on human …; assay: flow cytometry on OVCAR-3 cells; grade of MFI ratio to control (++ = 5 or more)
Experimental: as §1, §2

[16] = biological target: T2, mesothelin (MSLN) expressed on human …; assay: flow cytometry on NCI-H226 cells; grade of MFI ratio to control (++ = 5 or more)
Experimental: as §1, §2

T2 sequence (Q13421 other isoform, or with tags, fused parts or gaps limits assumed): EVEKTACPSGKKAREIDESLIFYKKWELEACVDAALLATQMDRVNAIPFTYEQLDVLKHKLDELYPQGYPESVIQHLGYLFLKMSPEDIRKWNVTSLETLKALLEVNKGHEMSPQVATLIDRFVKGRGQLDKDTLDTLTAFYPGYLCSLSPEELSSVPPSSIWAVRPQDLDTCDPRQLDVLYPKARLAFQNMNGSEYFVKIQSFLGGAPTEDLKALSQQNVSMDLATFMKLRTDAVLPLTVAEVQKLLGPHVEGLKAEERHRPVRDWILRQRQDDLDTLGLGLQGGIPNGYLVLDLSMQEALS
T1 sequence (Q13421 other isoform, or with tags, fused parts or gaps limits assumed): as above

B1: anti-human MSLN His-tag scFv clone H2a064 (scFv)
scFv: SYELTQPPSVSVSPGQTARITCSGDALPKHYASWYQQKPGQAPVLLIYKDTERPSGIPERFSGSSSGTTVTLTISGVQAEDEADYYCQSADSSVTVVFGGGTKLTVLGGGGSGGGGSGGGGSGGGGSQVQLVQSGGGLVQPGRSLRLSCAASGFTFDDYAMHWVRQAPGKGLEWVSGISWNSGSIGYADSVKGRFTISRDNAKNSLYLQMNSLRAEDTALYYCAKDIGSSGWYGAFDIWGQGTTVTVSSGG
notes: Unlabeled His-tag scFv expressed in CHO cells; also called His-tag scFv H2a064; His-Tag-scFv H2a064
- Kd [1]: 59.6 nM

B2: 89Zr-DFO-scFv H2a064 (scFv)
scFv: B1 scFv
modifications: deferoxamine (p-SCN-Bn-DFO) conjugated and loaded with 89Zr; sites not stated
notes: Same polypeptide as H2a064 His-tag scFv, DFO-modified and 89Zr-labeled; also called H2a064 after 89Zr labeling; 89Zr-labeled DFO-His-tag-scFv H2a064
- Kd [2]: 78.2 nM

B3: DFO-modified His-tag scFv H2a064 (scFv)
scFv: B1 scFv
modifications: deferoxamine (p-SCN-Bn-DFO) conjugated, chelator to scFv ratio 3:1 in the reaction; sites not stated
notes: Same polypeptide as H2a064 His-tag scFv, carrying the DFO chelator; also called H2a064 after DFO modification; DFO-His-tag-scFv H2a064
- Kd [3]: 114 nM

B4: anti-human MSLN His-tag scFv clone H1a050 (scFv)
scFv: SYELTQPPSVSVSPGQTARITCSGNALPKQYAYWYQQKPGQAPVLMIYKDSERPSGIPERFSGSSSGTTVTLTISGVQAEDEADYYCQSADSSHTYKVFGGGTKLTVLGGGGSGGGGSGGGGSGGGGSEVQLVQSGGGLVQPDRSLRLSCAASGFTFDDYAMHWVRQAPGKGLEWVSGISWNSGSIGYADSVKGRFTISRDNAKNSLYLQMNSLRAEDTALYYCAKDLGSYYGSGSGMDVWGQGTTVTVSSGG
notes: Unlabeled His-tag scFv expressed in CHO cells; also called His-tag scFv H1a050; His-Tag-scFv H1a050
- Kd [1]: 4.68 nM
- ratio of MFI of scFv clone H1a050 to MFI of control (flow cytometry) [4]: 1.5 to 4.9 ratio
- ratio of MFI of scFv clone H1a050 to MFI of control (flow cytometry) [5]: 1.5 to 4.9 ratio
- ratio of MFI of scFv clone H1a050 to MFI of control (flow cytometry) [6]: 1.5 to 4.9 ratio
- ratio of MFI of scFv clone H1a050 to MFI of control (flow cytometry) [7]: 1.5 to 4.9 ratio
- ratio of MFI of scFv clone H1a050 to MFI of control (flow cytometry) [8]: 1.5 to 4.9 ratio
- ratio of MFI of scFv clone H1a050 to MFI of control (flow cytometry) [9]: 1.5 to 4.9 ratio
- ratio of MFI of scFv clone H1a050 to MFI of control (flow cytometry) [10]: 1.5 to 4.9 ratio
- ratio of MFI of scFv clone H1a050 to MFI of control (flow cytometry) [11]: 1.5 to 4.9 ratio
- ratio of MFI of scFv clone H1a050 to MFI of control (flow cytometry) [12]: ≥ 5 ratio
- ratio of MFI of scFv clone H1a050 to MFI of control (flow cytometry) [13]: 1.5 to 4.9 ratio
- ratio of MFI of scFv clone H1a050 to MFI of control (flow cytometry) [14]: ≥ 5 ratio
- ratio of MFI of scFv clone H1a050 to MFI of control (flow cytometry) [15]: ≥ 5 ratio
- ratio of MFI of scFv clone H1a050 to MFI of control (flow cytometry) [16]: ≥ 5 ratio

B5: DFO-modified His-tag scFv H1a050 (scFv)
scFv: B4 scFv
modifications: deferoxamine (p-SCN-Bn-DFO) conjugated, chelator to scFv ratio 3:1 in the reaction; sites not stated
notes: Same polypeptide as H1a050 His-tag scFv, carrying the DFO chelator; also called H1a050 after DFO modification; DFO-His-tag-scFv H1a050
- Kd [3]: 3.38 nM

B6: 89Zr-DFO-scFv H1a050 (scFv)
scFv: B4 scFv
modifications: deferoxamine (p-SCN-Bn-DFO) conjugated and loaded with 89Zr; sites not stated
notes: Same polypeptide as H1a050 His-tag scFv, DFO-modified and 89Zr-labeled; also called H1a050 after 89Zr labeling; 89Zr-labeled DFO-His-tag-scFv H1a050
- Kd [2]: 46.2 nM
